From publication PMC10385607, “Optimization and Characterization of Novel ALCAM-Targeting Antibody Fragments for Transepithelial Delivery” (Pharmaceutics, 2023)
Each block holds one binder with its values, some of them ahead of it.

Columns and labels:
[1] = target: Murine ALCAM (Mus musculus, UniProt Q61490); assay: cell-based or functional assay
[2] = target: T1, Rat ALCAM (Rattus norvegicus, UniProt O35112); assay: ELISA; plate coated with human, mouse, rat or monkey ALCAM (5 µg/mL in PBS); scFv V2D7 1:3 dilutions from 1000 nM to 0.051 nM in PBS, 2 h RT; detected with HRP-coupled protein A; conditions: both partners purified
T1 construct: rat ALCAM, recombinant; source: bought: Sino Biological (80221-R08H-50)
T1 sequence (O35112 28-527): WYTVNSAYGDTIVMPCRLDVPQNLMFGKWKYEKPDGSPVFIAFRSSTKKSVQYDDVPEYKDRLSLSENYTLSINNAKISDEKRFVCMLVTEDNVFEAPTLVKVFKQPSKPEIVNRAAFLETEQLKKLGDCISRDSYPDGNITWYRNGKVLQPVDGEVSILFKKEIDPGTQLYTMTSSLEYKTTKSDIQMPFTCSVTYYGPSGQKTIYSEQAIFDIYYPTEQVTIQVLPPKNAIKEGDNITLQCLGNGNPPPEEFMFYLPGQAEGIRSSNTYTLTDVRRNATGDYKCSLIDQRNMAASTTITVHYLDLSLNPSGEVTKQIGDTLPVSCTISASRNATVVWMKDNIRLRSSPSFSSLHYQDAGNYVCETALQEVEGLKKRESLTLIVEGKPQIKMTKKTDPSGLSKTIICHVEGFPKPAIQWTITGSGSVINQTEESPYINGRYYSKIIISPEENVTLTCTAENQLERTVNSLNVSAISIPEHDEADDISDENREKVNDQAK

[3] = target: T2, Monkey ALCAM (Macaca fascicularis (cynomolgus monkey), UniProt G7NZQ8); assay: as above; conditions: both partners purified
T2 construct: cynomolgus monkey ALCAM, recombinant; also called cynomolgus monkey ALCAM; source: bought: R&D systems (10027-AL-100)

[4] = target: T3, Human ALCAM (28–501)-6xhistidine tag (human, UniProt Q13740); assay: ELISA; CD6 competition ELISA: plate coated with hALCAM (5 µg/mL in PBS); fixed murine CD6-Fc (0.25 µg/mL) with antibody 2000 nM to 0.002 nM in PBS, 2 h RT; bound CD6-Fc detected with HRP-coupled antihuman IgG; conditions: both partners purified
T3 construct: human ALCAM, residues 28-501, all five extracellular immunoglobulin domains; also called hALCAM; source: CHO cells, in-house, purified (Ni-NTA agarose)

[5] = target: T3, Human ALCAM (28–501)-6xhistidine tag; assay: SPR; BiaCore3000; CM5 chip coated with hALCAM at 800 RU; flow 10 µL/min; single-cycle, sequential injection of scFv at 30, 60, 120 and 240 nM; conditions: both partners purified
[6] = target: T3, Human ALCAM (28–501)-6xhistidine tag; assay: ELISA; CD6 competition ELISA: plate coated with hALCAM (5 µg/mL in PBS); fixed murine CD6-Fc (0.25 µg/mL) with antibody 2000 nM to 0.002 nM in PBS, 2 h RT; bound CD6-Fc detected with HRP-coupled antihuman IgG; conditions: both partners purified; remark: listed apart in the source
[7] = target: T4, Human ALCAM (28–501)-6xhistidine tag (human, UniProt Q13740 28-501); assay: as above; conditions: both partners purified
T4 construct: human ALCAM, residues 28-501, all five extracellular immunoglobulin domains; also called hALCAM; source: CHO cells, in-house, purified (Ni-NTA agarose)
T4 sequence (looked up): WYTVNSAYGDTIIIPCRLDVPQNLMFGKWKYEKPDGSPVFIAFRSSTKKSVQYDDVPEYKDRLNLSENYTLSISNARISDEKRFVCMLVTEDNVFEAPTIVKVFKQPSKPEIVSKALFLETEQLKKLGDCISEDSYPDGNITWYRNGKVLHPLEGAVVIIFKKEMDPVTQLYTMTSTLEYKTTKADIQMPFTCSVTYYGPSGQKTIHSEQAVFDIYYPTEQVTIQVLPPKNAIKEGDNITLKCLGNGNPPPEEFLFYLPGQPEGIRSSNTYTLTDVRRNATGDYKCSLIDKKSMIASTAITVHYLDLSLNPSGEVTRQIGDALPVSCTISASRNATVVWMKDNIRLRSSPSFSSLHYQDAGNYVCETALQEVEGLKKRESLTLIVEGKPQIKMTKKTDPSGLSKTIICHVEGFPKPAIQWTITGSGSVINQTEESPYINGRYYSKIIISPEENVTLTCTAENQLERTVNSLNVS

Chain of Murine ALCAM (Q61490 28-527): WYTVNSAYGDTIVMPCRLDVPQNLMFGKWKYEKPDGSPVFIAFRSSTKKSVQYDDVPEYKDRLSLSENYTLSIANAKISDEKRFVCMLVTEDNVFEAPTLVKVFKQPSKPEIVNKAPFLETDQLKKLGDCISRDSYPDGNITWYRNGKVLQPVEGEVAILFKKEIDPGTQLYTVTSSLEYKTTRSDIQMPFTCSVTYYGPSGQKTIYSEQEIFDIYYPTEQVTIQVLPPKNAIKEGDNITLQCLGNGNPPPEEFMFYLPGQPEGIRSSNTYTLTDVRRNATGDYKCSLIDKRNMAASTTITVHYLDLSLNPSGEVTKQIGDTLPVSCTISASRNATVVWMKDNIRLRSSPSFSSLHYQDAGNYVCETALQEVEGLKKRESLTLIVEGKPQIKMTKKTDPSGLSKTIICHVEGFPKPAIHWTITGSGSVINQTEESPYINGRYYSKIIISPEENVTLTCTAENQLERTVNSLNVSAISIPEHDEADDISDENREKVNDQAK

B3: db V20C10NC (other)
VH: EVQLVESGGGLVQPGGSLRLSCAASGFTFSTGAMSWVRQAPGKGLEWVSAISGTGGTTYYADSVKGRFTISRDNSKNTLYLQMNSLRAEDTAVYYCAKGYVAFDYWGQGTLVTVSS
VL: SSVLTQPPSVSVAPGQTARITCQGDSLRSGYASWYQQKPGQAPVLVVYPKMSRPSGIPERFSGSSSGNTATLTISRVEAGDEADYYCNSSPPFSAEVVFGGGTKLTVL
notes: linker; Bivalent two-chain diabody; also called V20C10NC in db format; source: CHO cells, transient gene expression, purified (Protein A)
binding result [6]: binds

B4: Murine CD6-Fc (Fc fusion, mouse, UniProt Q61003 17-398, looked up)
chain: GLPSPAPSGQHKNGTIPNMTLDLEERLGIRLVNGSSRCSGSVKVLLESWEPVCAAHWNRAATEAVCKALNCGDSGKVTYLMPPTSELPPGATSGNTSSAGNTTWARAPTERCRGANWQFCKVQDQECSSDRRLVWVTCAENQAVRLVDGSSRCAGRVEMLEHGEWGTVCDDTWDLQDAHVVCKQLKCGWAVKALAGLHFTPGQGPIHRDQVNCSGTEAYLWDCPGRPGDQYCGHKEDAGVVCSEHQSWRLTGGIDSCEGQVEVYFRGVWSTVCDSEWYPSEAKVLCRSLGCGSAVARPRGLPHSLDGRMYYSCKGQEPALSTCSWRFNNSNLCSQSRAARVVCSGSQRHLNLSTSEVPSRVPVTIESSVPVSVKDKDSQGLT
notes: mouse CD6, recombinant Fc fusion; source: bought: R&D Systems (727-CD)
binding result [7]: binds

B6: scFv V200G1 (scFv, V domains shown)
VH: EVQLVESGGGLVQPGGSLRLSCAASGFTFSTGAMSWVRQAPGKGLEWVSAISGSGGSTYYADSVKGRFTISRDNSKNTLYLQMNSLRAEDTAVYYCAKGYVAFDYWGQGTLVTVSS
VL: SSVLTQPPSVSVAPGQTARITCQGDSLRSGYASWYQQKPGQAPVLVVYGKTGRPSGIPERFSGSSSGNTATLTISRVEAGDEADYYCNSSPPFSAEVVFGGGTKLTVL
notes: VH of V200G1: as the VH of V2D7, i.e. the VH of OPT with changed CDR1; linker; VL of V200G1: as the VL of OPT with changed CDR1 and CDR2; CDR1 QGDSLRSGYAS, CDR2 GKTGRPS, CDR3 NSSPPFSAEVV; source: CHO cells, transient gene expression, purified (Protein A)
binding result [5]: binds

B7: scFv V20C10NC (scFv, V domains shown)
VH: EVQLVESGGGLVQPGGSLRLSCAASGFTFSTGAMSWVRQAPGKGLEWVSAISGTGGTTYYADSVKGRFTISRDNSKNTLYLQMNSLRAEDTAVYYCAKGYVAFDYWGQGTLVTVSS
VL: SSVLTQPPSVSVAPGQTARITCQGDSLRSGYASWYQQKPGQAPVLVVYPKMSRPSGIPERFSGSSSGNTATLTISRVEAGDEADYYCNSSPPFSAEVVFGGGTKLTVL
notes: VH of V20C10NC: as the VH of OPT with changed CDR1 and CDR2; linker; VL of V20C10NC: as the VL of OPT with changed CDR1 and CDR2; CDR1 QGDSLRSGYAS, CDR2 PKMSRPS, CDR3 NSSPPFSAEVV; Histidines in the CDR2 loops of clone V20C10 were mutated to threonine (VH) and serine (VL), giving V20C10NC; source: CHO cells, transient gene expression, purified (Protein A)
binding result [5]: binds

The next lines start with results.

binding result [2]: binds
binding result [3]: binds
IC50 [4]: 20.7 ± 11.8 nM
B1: scFv V2D7 (scFv, V domains shown)
VH: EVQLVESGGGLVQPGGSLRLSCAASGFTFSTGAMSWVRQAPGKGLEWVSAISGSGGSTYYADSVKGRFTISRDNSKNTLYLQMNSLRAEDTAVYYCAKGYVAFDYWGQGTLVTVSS
VL: SSVLTQPPSVSVAPGQTARITCQGDSLRSGYASWYQQKPGQAPVLVVYGKNNRPSGIPERFSGSSSGNTATLTISRVEAGDEADYYCNSSPPFSAEVVFGGGTKLTVL
notes: VH of V2D7: as the VH of OPT with changed CDR1; linker; VL of V2D7: as the VL of OPT with changed CDR1; CDR1 QGDSLRSGYAS, CDR2 GKNNRPS, CDR3 NSSPPFSAEVV; also called V2D7 scFv; source: CHO cells, transient gene expression, purified (Protein A)
IC50 of DC transmigration across LEC monolayers (DC TM; blocks ALCAM–ALCAM between DCs and LECs) [1]: > 100 nM

Kd [5]: 24.1 nM
IC50 [6]: 63.6 nM
B2: scFv IF8 (scFv, V domains shown)
VH: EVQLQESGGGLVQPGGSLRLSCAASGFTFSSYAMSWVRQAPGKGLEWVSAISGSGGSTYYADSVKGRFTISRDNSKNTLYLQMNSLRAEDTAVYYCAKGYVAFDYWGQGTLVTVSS
VL: SSELTQDPAVSVALGQTVRITCQGDSLRSYYASWYQQKPGQAPVLVIYGKNNRPSGIPDRFSGSSSGNTASLTITGAQAEDEADYYCNSSPPFSAEVVFGGGTKLTVL
notes: VH of IF8 (heavy chain DP47, ETH-2 library); VL of IF8 (light chain DPL16, ETH-2 library); CDR1 QGDSLRSYYAS, CDR2 GKNNRPS, CDR3 NSSPPFSAEVV; Only CDRs and linker are printed; also called IF8 scFv; parental scFv IF8; source: CHO cells, transient gene expression, purified (Protein A)

fold improvement of Kd against scFv IF8 [5]: 2 fold
B5: scFv OPT (scFv, V domains shown)
VH: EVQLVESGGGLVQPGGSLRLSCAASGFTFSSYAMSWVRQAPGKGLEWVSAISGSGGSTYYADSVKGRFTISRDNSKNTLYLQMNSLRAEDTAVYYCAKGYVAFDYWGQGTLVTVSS
VL: SSVLTQPPSVSVAPGQTARITCQGDSLRSYYASWYQQKPGQAPVLVVYGKNNRPSGIPERFSGSSSGNTATLTISRVEAGDEADYYCNSSPPFSAEVVFGGGTKLTVL
notes: linker; CDR1 QGDSLRSYYAS, CDR2 GKNNRPS, CDR3 NSSPPFSAEVV; Only CDRs and linker are printed; also called framework-optimized scFv OPT; source: CHO cells, transient gene expression, purified (Protein A)
